Data from paper PMC6804253, “Predicting and Experimentally Validating Hot-Spot Residues at Protein–Protein Interfaces” (ACS Chemical Biology, 2019).
Where two headings read alike, the source gives them in different places.

What was measured:
[1] = tested on: PPIs of the SKEMPI data set (by PDBID); conditions: single mutation to alanine, ref SKEMPI, cited from earlier work; for sk_ddG_kJ (SKEMPI experimental ΔΔG, mutation to alanine): r_group DERKH
[2] = tested on: PPIs of the SKEMPI data set (by PDBID); experiment: SKEMPI experimental ΔΔG, single mutations to alanine; type: binding; conditions: for sk_class (class of the SKEMPI experimental ΔΔG) / sk_class (class of SKEMPI experimental ΔΔG): class by ΔΔG threshold 4.184 kJ/mol, ref SKEMPI; for sk_class: class of the SKEMPI experimental ΔΔG
[3] = PPI given by PDBID, sheet sortedByGroup
[4] = complex given by PDBID, mutation by mut_pdb
[5] = PPI given by PDBID, sheet sortedByGroup, r_group FAMILYVW

| Molecule | sk_ddG_kJ (SKEMPI experimental ΔΔG) [1, 4] [kJ] | sk_class [2] | sk_ddG_kJ (SKEMPI experimental ΔΔG) [1, 5] [kJ] | sk_class (class of SKEMPI experimental ΔΔG) [2] | further results |
| --- | --- | --- | --- | --- | --- |
| 1A4Y EA287A (protein, UniProt P13489 2-461, looked up, variant E287A) Ribonuclease inhibitor: SLDIQSLDIQCEELSDARWAELLPLLQQCQVVRLDDCGLTEARCKDISSALRVNPALAELNLRSNELGDVGVHCVLQGLQTPSCKIQKLSLQNCCLTGAGCGVLSSTLRTLPTLQELHLSDNLLGDAGLQLLCEGLLDPQCRLEKLQLEYCSLSAASCEPLASVLRAKPDFKELTVSNNDINEAGVRVLCQGLKDSPCQLEALKLESCGVTSDNCRDLCGIVASKASLRELALGSNKLGDVGMAELCPGLLHPSSRLRTLWIWECGITAKGCGDLCRVLRAKESLKALSLAGNELGDEGARLLCETLLEPGCQLESLWVKSCSFTAACCSHFSSVLAQNRFLLELQISNNRLEDAGVRELCQGLGQPGSVLRVLWLADCDVSDSSCSSLAATLLANHSLRELDLSNNCLGDAGILQLVESVRQPGCLLEQLVLYDIYWSEEMEDRLQALEKDKPSLRVIS | – | – | – | – | sk_ddG_kJ (SKEMPI experimental ΔΔG, mutation to alanine) [1, 3]: 0.38 kJ; sk_class (class of the SKEMPI experimental ΔΔG) [2]: Neutral (neutral (little effect) 4.184 kJ/mol < ΔΔG > −4.184 kJ/mol) |
| 1A4Y KA320A (protein, UniProt P13489 2-461, looked up, variant K320A) Ribonuclease inhibitor: SLDIQSLDIQCEELSDARWAELLPLLQQCQVVRLDDCGLTEARCKDISSALRVNPALAELNLRSNELGDVGVHCVLQGLQTPSCKIQKLSLQNCCLTGAGCGVLSSTLRTLPTLQELHLSDNLLGDAGLQLLCEGLLDPQCRLEKLQLEYCSLSAASCEPLASVLRAKPDFKELTVSNNDINEAGVRVLCQGLKDSPCQLEALKLESCGVTSDNCRDLCGIVASKASLRELALGSNKLGDVGMAELCPGLLHPSSRLRTLWIWECGITAKGCGDLCRVLRAKESLKELSLAGNELGDEGARLLCETLLEPGCQLESLWVASCSFTAACCSHFSSVLAQNRFLLELQISNNRLEDAGVRELCQGLGQPGSVLRVLWLADCDVSDSSCSSLAATLLANHSLRELDLSNNCLGDAGILQLVESVRQPGCLLEQLVLYDIYWSEEMEDRLQALEKDKPSLRVIS | – | – | – | – | sk_ddG_kJ (SKEMPI experimental ΔΔG, mutation to alanine) [1, 3]: -1.30 kJ; sk_class (class of the SKEMPI experimental ΔΔG) [2]: Neutral (neutral (little effect) 4.184 kJ/mol < ΔΔG > −4.184 kJ/mol) |
| 1A4Y SA289A (protein, UniProt P13489 2-461, looked up, variant S289A) Ribonuclease inhibitor: SLDIQSLDIQCEELSDARWAELLPLLQQCQVVRLDDCGLTEARCKDISSALRVNPALAELNLRSNELGDVGVHCVLQGLQTPSCKIQKLSLQNCCLTGAGCGVLSSTLRTLPTLQELHLSDNLLGDAGLQLLCEGLLDPQCRLEKLQLEYCSLSAASCEPLASVLRAKPDFKELTVSNNDINEAGVRVLCQGLKDSPCQLEALKLESCGVTSDNCRDLCGIVASKASLRELALGSNKLGDVGMAELCPGLLHPSSRLRTLWIWECGITAKGCGDLCRVLRAKESLKELALAGNELGDEGARLLCETLLEPGCQLESLWVKSCSFTAACCSHFSSVLAQNRFLLELQISNNRLEDAGVRELCQGLGQPGSVLRVLWLADCDVSDSSCSSLAATLLANHSLRELDLSNNCLGDAGILQLVESVRQPGCLLEQLVLYDIYWSEEMEDRLQALEKDKPSLRVIS | 0.13 | Neutral (neutral (little effect) 4.184 kJ/mol < ΔΔG > −4.184 kJ/mol) | – | – | – |
| 1A4Y EA344A (protein, UniProt P13489 2-461, looked up, variant E344A) Ribonuclease inhibitor: SLDIQSLDIQCEELSDARWAELLPLLQQCQVVRLDDCGLTEARCKDISSALRVNPALAELNLRSNELGDVGVHCVLQGLQTPSCKIQKLSLQNCCLTGAGCGVLSSTLRTLPTLQELHLSDNLLGDAGLQLLCEGLLDPQCRLEKLQLEYCSLSAASCEPLASVLRAKPDFKELTVSNNDINEAGVRVLCQGLKDSPCQLEALKLESCGVTSDNCRDLCGIVASKASLRELALGSNKLGDVGMAELCPGLLHPSSRLRTLWIWECGITAKGCGDLCRVLRAKESLKELSLAGNELGDEGARLLCETLLEPGCQLESLWVKSCSFTAACCSHFSSVLAQNRFLLALQISNNRLEDAGVRELCQGLGQPGSVLRVLWLADCDVSDSSCSSLAATLLANHSLRELDLSNNCLGDAGILQLVESVRQPGCLLEQLVLYDIYWSEEMEDRLQALEKDKPSLRVIS | – | – | – | – | sk_ddG_kJ (SKEMPI experimental ΔΔG, mutation to alanine) [1, 3]: 0.67 kJ; sk_class (class of the SKEMPI experimental ΔΔG) [2]: Neutral (neutral (little effect) 4.184 kJ/mol < ΔΔG > −4.184 kJ/mol) |
| 1JRH YI49A (protein, UniProt P15260 18-245, looked up, variant Y49A, extracellular domain) extracellular domain: EMGTADLGPSSVPTPTNVTIESYNMNPIVYWEYQIMPQVPVFTVEVKNAGVKNSEWIDACINISHHYCNISDHVGDPSNSLWVRVKARVGQKESAYAKSEEFAVCRDGKIGPPKLDIRKEEKQIMIDIFHPSVFVNGDEQEVDYDPETTCYIRVYNVYVRMNGSEIQYKILTQKEDDCDEIQCQLAIPVSSLNSQYCVSAEGVLHVWGVTTEKSKEVCITIFNSSIKG | – | – | 15.31 | Positive (positive (a hot residue) ΔΔG ≥ 4.184 kJ/mol) | – |
| 1JRH WI82A (protein, UniProt P15260 18-245, looked up, variant W82A, extracellular domain) extracellular domain: EMGTADLGPSSVPTPTNVTIESYNMNPIVYWEYQIMPQVPVFTVEVKNYGVKNSEWIDACINISHHYCNISDHVGDPSNSLAVRVKARVGQKESAYAKSEEFAVCRDGKIGPPKLDIRKEEKQIMIDIFHPSVFVNGDEQEVDYDPETTCYIRVYNVYVRMNGSEIQYKILTQKEDDCDEIQCQLAIPVSSLNSQYCVSAEGVLHVWGVTTEKSKEVCITIFNSSIKG | – | – | 18.12 | Positive (positive (a hot residue) ΔΔG ≥ 4.184 kJ/mol) | – |
| 1JRH GI50A (protein, UniProt P15260 18-245, looked up, variant G50A, extracellular domain) extracellular domain: EMGTADLGPSSVPTPTNVTIESYNMNPIVYWEYQIMPQVPVFTVEVKNYAVKNSEWIDACINISHHYCNISDHVGDPSNSLWVRVKARVGQKESAYAKSEEFAVCRDGKIGPPKLDIRKEEKQIMIDIFHPSVFVNGDEQEVDYDPETTCYIRVYNVYVRMNGSEIQYKILTQKEDDCDEIQCQLAIPVSSLNSQYCVSAEGVLHVWGVTTEKSKEVCITIFNSSIKG | 18.33 | Positive (positive (a hot residue) ΔΔG ≥ 4.184 kJ/mol) | – | – | – |
| 1JRH VI51A (protein, UniProt P15260 18-245, looked up, variant V51A, extracellular domain) extracellular domain: EMGTADLGPSSVPTPTNVTIESYNMNPIVYWEYQIMPQVPVFTVEVKNYGAKNSEWIDACINISHHYCNISDHVGDPSNSLWVRVKARVGQKESAYAKSEEFAVCRDGKIGPPKLDIRKEEKQIMIDIFHPSVFVNGDEQEVDYDPETTCYIRVYNVYVRMNGSEIQYKILTQKEDDCDEIQCQLAIPVSSLNSQYCVSAEGVLHVWGVTTEKSKEVCITIFNSSIKG | – | – | 6.19 | Positive (positive (a hot residue) ΔΔG ≥ 4.184 kJ/mol) | – |
| 1DAN GT43A (protein, UniProt P13726 33-251, looked up, variant G43A, extracellular domain) extracellular domain: SGTTNTVAAYNLTWKSTNFKTILEWEPKPVNQVYTVQISTKSADWKSKCFYTTDTECDLTDEIVKDVKQTYLARVFSYPAGNVESTGSAGEPLYENSPEFTPYLETNLGQPTIQSFEQVGTKVNVTVEDERTLVRRNNTFLSLRDVFGKDLIYTLYYWKSSSSGKKTAKTNTNEFLIDVDKGENYCFSVQAVIPSRTVNRKSTDSPVECMGQEKGEFRE | 0.29 | Neutral (neutral (little effect) 4.184 kJ/mol < ΔΔG > −4.184 kJ/mol) | – | – | – |
| 1DAN PU92A (protein, UniProt P13726 33-251, looked up, variant P92A, extracellular domain) extracellular domain: SGTTNTVAAYNLTWKSTNFKTILEWEPKPVNQVYTVQISTKSGDWKSKCFYTTDTECDLTDEIVKDVKQTYLARVFSYPAGNVESTGSAGEALYENSPEFTPYLETNLGQPTIQSFEQVGTKVNVTVEDERTLVRRNNTFLSLRDVFGKDLIYTLYYWKSSSSGKKTAKTNTNEFLIDVDKGENYCFSVQAVIPSRTVNRKSTDSPVECMGQEKGEFRE | -0.79 | Neutral (neutral (little effect) 4.184 kJ/mol < ΔΔG > −4.184 kJ/mol) | – | – | – |
| 1AHW TC167A (protein, UniProt P13726 33-251, looked up, variant T167A, extracellular domain) extracellular domain: SGTTNTVAAYNLTWKSTNFKTILEWEPKPVNQVYTVQISTKSGDWKSKCFYTTDTECDLTDEIVKDVKQTYLARVFSYPAGNVESTGSAGEPLYENSPEFTPYLETNLGQPTIQSFEQVGTKVNVTVEDERTLVRRNNTFLSLRDVFGKDLIYTLYYWKSSSSGKKAAKTNTNEFLIDVDKGENYCFSVQAVIPSRTVNRKSTDSPVECMGQEKGEFRE | – | Neutral (neutral (little effect) 4.184 kJ/mol < ΔΔG > −4.184 kJ/mol) | – | – | sk_ddG_kJ (SKEMPI experimental ΔΔG) ([1]; complex given by PDBID, residue group SQNT): -0.29 kJ |
| 1IAR FA82A (protein, UniProt P05112 25-153, looked up, variant F82A) Interleukin-4: HKCDITLQEIIKTLNSLTEQKTLCTELTVTDIFAASKNTTEKETFCRAATVLRQFYSHHEKDTRCLGATAQQFHRHKQLIRALKRLDRNLWGLAGLNSCPVKEANQSTLENFLERLKTIMREKYSKCSS | – | – | -0.38 | Neutral (neutral (little effect) 4.184 kJ/mol < ΔΔG > −4.184 kJ/mol) | – |
| 1IAR WA91A (protein, UniProt P05112 25-153, looked up, variant W91A) Interleukin-4: HKCDITLQEIIKTLNSLTEQKTLCTELTVTDIFAASKNTTEKETFCRAATVLRQFYSHHEKDTRCLGATAQQFHRHKQLIRFLKRLDRNLAGLAGLNSCPVKEANQSTLENFLERLKTIMREKYSKCSS | – | – | 3.05 | Neutral (neutral (little effect) 4.184 kJ/mol < ΔΔG > −4.184 kJ/mol) | – |
| 1EMV GA49A (protein, UniProt P13479 1-86, looked up, variant G49A) Colicin-E9 immunity protein: MELKHSISDYTEAEFLQLVTTICNADTSSEEELVKLVTHFEEMTEHPSASDLIYYPKEGDDDSPSGIVNTVKQWRAANGKSGFKQG | 6.23 | Positive (positive (a hot residue) ΔΔG ≥ 4.184 kJ/mol) | – | – | – |
| 1EMV PA56A (protein, UniProt P13479 1-86, looked up, variant P56A) Colicin-E9 immunity protein: MELKHSISDYTEAEFLQLVTTICNADTSSEEELVKLVTHFEEMTEHPSGSDLIYYAKEGDDDSPSGIVNTVKQWRAANGKSGFKQG | 5.19 | Positive (positive (a hot residue) ΔΔG ≥ 4.184 kJ/mol) | – | – | – |
